Experimental data: US20250270300A1 (UNIVERSITY COURT OF THE UNIVERSITY OF ABERDEEN, published 2025)
Substitutions are numbered along the chain they refer to.

B1: AB133 (antibody, human IgG1, V domains shown)
VH: EVQLVESGGGLVQPGGSLRVSCAASGFTLNTYWMHWVRQAPGKGLVWVSRINEDGTTISYADSVRGRFTISRDNAENTLYLQMHSLRAEDTGVYYCARDFTGPFDSWGQGTLVSVSS
VL: QSVLTQPPSVSGTPGQRVTISCSGSNSNAGRDYVSWYQQVPGTAPKLLIYKNNQRPSGVPDRFSGSKSGTSASLAISGLRSEDDGDYYCIVWDGSLSGYVFGTGTKVTVL
notes: Tested as purified recombinant whole human IgG1 (Expi293F); also called 06-AB-133; anti-whole cell mAb
B2: AB140 (antibody, human IgG1, V domains shown)
VH: B1 VH
VL: B1 VL with S2L, A29V
notes: Tested as purified recombinant whole human IgG1 (Expi293F); also called 06-AB-140; anti-whole cell mAb
B3: AB139 (antibody, human IgG1, V domains shown)
VH: B1 VH
VL: B1 VL with A29V, Q54R
notes: Tested as purified recombinant whole human IgG1 (Expi293F); also called 06-AB-139; anti-whole cell mAb
B4: AB122 (antibody, human IgG1, V domains shown)
VH: EVQLVQSGGGLAQPGRSLRLSCAASGFGFDDFAMHWVRQPPGKGLEWVSGLTWNGGSIDYAGSVRGRFTISRDNAKNSLFLQMNSLRAEDTALYYCAKGLSGGTMAPFDIWGQGTMVSVSS
VL: QAGLTQPPSVSVAPGQTATIPCGGNNIGSKHVHWYQQKPGQAPVAVVYDDSDRPSGVPERFSGSNSGNTATLTISSVEAGDEADYYCQVWDRSSDHFWLFGGGTRLTVL
notes: Tested as purified recombinant whole human IgG1 (Expi293F); also called 06-AB-122; anti-Hyr1 mAb
B5: AB134 (antibody, human IgG1, V domains shown)
VH: QLQLQESGGGLVQPGGSLRLSCVVSGFTFSSHAMSWVRQAPGKGLEWVSSISISGGDTFYADSVRGRFTIFRDNSKNTVYLQMNSLRAEDTAVYYCATETSPNDYWGQGTLVSVSS
VL: SYELTQPSSLTVSPGGTVTLTCGLSSGAVTSGHYPYWFQQKPGQAPKTLIFDTSRKHSWTPARFSGSLLGGKAALTLSGAQPEDDADYYCLLACNGACVFGGGTKLTVL
notes: Tested as purified recombinant whole human IgG1 (Expi293F); also called 06-AB-134; anti-whole cell mAb
B6: AB135 (antibody, human IgG1, V domains shown)
VH: B5 VH with Q1E, L2V, Q5V, S7T, S113T
VL: B5 VL
notes: Tested as purified recombinant whole human IgG1 (Expi293F); also called 06-AB-135; anti-whole cell mAb
B7: AB129 (antibody, human IgG1, V domains shown)
VH: QVQLVESGGGLVQPGGSLRLSCSASQFILSNYWVHWVRQVPGEGLVWVSRINEDGSVTSYADSVKGRFTISRDNAKNTLYLQMNSLRVDDTAVYYCVRDLCGERDDWGQGTLVTVSS
VL: VIWMTQSPLSLPVTPGEAASISCRSSQSLLHRNGRTFFAWYLQKPGQSPQILIYLGSNRAFGVPDRFSGSGSGTDFTLKISRVEAEDVGIYYCMQGLQTPYTFGQGTKLEIK
notes: Tested as purified recombinant whole human IgG1 (Expi293F); also called 06-AB-129; anti-whole cell mAb
B8: AB130 (antibody, human IgG1, V domains shown)
VH: B7 VH with V2L, V5Q, G102W, T114S
VL: B7 VL
notes: Tested as purified recombinant whole human IgG1 (Expi293F); also called 06-AB-130; anti-whole cell mAb
B9: AB118 (antibody, human IgG1, V domains shown)
VH: B7 VH with Q1E, T114S
VL: B7 VL with V1D, W3V, R35K, F61S
notes: Tested as purified recombinant whole human IgG1 (Expi293F); also called 06-AB-118; anti-whole cell mAb
B10: AB121 (antibody, human IgG1, V domains shown)
VH: EVQLVESGGTLVQPGGSLRLSCAASGFTFSDYWMNWVRQAPGKGLEWVANIKQDGSEKYYVDSLRGRVTISRDNAQNSVFLQMHSLSVEDTAVYYCARDGYTFGPATTELDHWGRGTLVSVSS
VL: QLVLTQPPSVSVSPGQTASITCSGDELRNKYTSWYQQKSGQSPVLVIYQDNNRPSGIPERFSGSQSGDTATLTISGTQAVDEADYYCQAWVSQTLVFGGGTKLTVL
notes: Tested as purified recombinant whole human IgG1 (Expi293F); also called 06-AB-121; anti-Hyr1 mAb
B11: AB126 (antibody, human IgG1, V domains shown)
VH: EVQLVESGGGLAQPGGSLRLSCEASGFHLAGNAMAWVRQAPGKGLEWVAAIGGSDDRTDYADSVKGRFTISRDKSKNTLSLQMNSLRVEDTAVYYCAKDIWRWAFDYWGQGTLVSVSS
VL: DIVMTQSPATLSLSPGERATLSCWASQYINTYVNWYQHKPGQAPRLLIYDASKRATGIPARFSGSGSGTDFTLTISSLEPEDFAVYYCQQGSNWPLTFGQGTRLEIK
notes: Tested as purified recombinant whole human IgG1 (Expi293F); also called 06-AB-126; anti-whole cell mAb
B12: AB120 (antibody, human IgG1, V domains shown)
VH: EVQLVQSGGGLVQPGGSLGLSCAASGFIFTSYAMTWVRQAPGKGLEWVSVITGNVGTSYYADSVKGRFTISRDNSKKTVSLQMNSLRAEDTAIYYCVKTRYDFSSGYYFDDWGQGTLVSVSS
VL: DIVMTQSPSSVSASVGDKVTITCRASQGISRWLAWYQQKPGEAPELLIYAASSLQSGVPSRFSGSGSGTDFTLTISSLQPEDFATYYCQQANSFPITFGQGTRLQIK
notes: Tested as purified recombinant whole human IgG1 (Expi293F); also called 06-AB-120; anti-Hyr1 mAb
B13: AB119 (antibody, human IgG1, V domains shown)
VH: QVTLKESGGGLVQPGGSLRLSCVASGFTFRTYWMHWVRQDPGKGLVWVSRLDEVGRLTSYADSVNGRFTISRDNAKNILYLQMNSLRAEDTGVYYCARDLSGSADYWGQGTLVTVSS
VL: DVVLTQSPLFLPVTPGEPASISCRSSQSLLHSRGHTSLHWYLQKPGQSPHLLIYSVFNRASGVPDRFSGSGSGTDFTLKISRVEAEDVGVYYCMQALEPPYTFGQGTKLEIK
notes: Tested as purified recombinant whole human IgG1 (Expi293F); also called 06-AB-119; anti-whole cell mAb
B14: AB131 (antibody, human IgG1, V domains shown)
VH: QVQLVQSGGGVVQPGGSLRLSCAASPFTFKTSILHWVRQAPGKGLEWVSAMSYDGFSKYYADSVKGRLTISRDSSTNTLYLEMNSLRFEDTALYFCAREAYTSGRAGCFNPWGQGVLVSVSS
VL: DIVMTQTPSTQSASVGDRVTITCRASQSISIWLAWYQQKPGKAPKLLIHDASTLESGVPSRFSGSGSGTEFTLTISSLQPDDSATYYCQRYNDYPPTFGPGTKVEIK
notes: Tested as purified recombinant whole human IgG1 (Expi293F); also called 06-AB-131; anti-whole cell mAb
B15: AB132 (antibody, human IgG1, V domains shown)
VH: QVLKESGGGVVQPGGSLRLSCAASPFTFETSILHWVRQAPGKGLEWVSAMSYDGFSKYYADSVKGRLTISRDSSTNTLYLEMNSLRFEDTALYFCAREAYTSGRAGCFDPWGQGVLVSVSS
VL: B14 VL with D1E, T7S
notes: Tested as purified recombinant whole human IgG1 (Expi293F); also called 06-AB-132; anti-whole cell mAb
B16: AB127 (antibody, human IgG1, V domains shown)
VH: EVQLVESGGGLVNPGGSLRLSCAASGFTFSNYAMNWVRQAPGKGLEWVSSISRSGDYIYYADSLKGRSTISRDNAKNSLFLQMNSLRAEDSAVYYCARDWGRLGYCSSNNCPDAFDVWGQGTRVSVSS
VL: EIVMTQSPSFVSASVGDRVTITCRASQDISNWLVWYQQKPGKAPKLLIYASSNLQSGVPSRFSGSGSGTDFALTIISLQPEDFATYYCQQENSFPYTFGQGTKLEIK
notes: Tested as purified recombinant whole human IgG1 (Expi293F); also called 06-AB-127; anti-whole cell mAb
B17: AB123 (antibody, human IgG1, V domains shown)
VH: EVQLLESGGGVVQPGRSLRLSCAASGFTFSNYGMHWVRQAPGKGLEWVAVVWFDGSYKYYTDSVKGRFTISRDNSKSTLYLQMNSLRAEDTAVYYCVSPIMTSAFDIWGPGTMVSVSS
VL: QLVLTQPPSASGSPGQSVTISCTGTSSDVGGSNFVSWYQHHPGKAPKLMIYEVSQRPSGVPDRFSGSKSGNTASLTVSGLQADDEADYYCSSYAGSVVLFGGGTKLTVL
notes: Tested as purified recombinant whole human IgG1 (Expi293F); also called 06-AB-123; anti-Hyr1 mAb
B18: AB124 (antibody, human IgG1, V domains shown)
VH: B17 VH with L5V, F53L, D62G, V93A, S115T
VL: B17 VL
notes: Tested as purified recombinant whole human IgG1 (Expi293F); also called 06-AB-124; anti-Hyr1 mAb

molecular target: T1, human serum albumin (human, UniProt P02768 25-609); assay: ELISA
T1 construct: also called HSA
T1 sequence (P02768 25-609 limits assumed): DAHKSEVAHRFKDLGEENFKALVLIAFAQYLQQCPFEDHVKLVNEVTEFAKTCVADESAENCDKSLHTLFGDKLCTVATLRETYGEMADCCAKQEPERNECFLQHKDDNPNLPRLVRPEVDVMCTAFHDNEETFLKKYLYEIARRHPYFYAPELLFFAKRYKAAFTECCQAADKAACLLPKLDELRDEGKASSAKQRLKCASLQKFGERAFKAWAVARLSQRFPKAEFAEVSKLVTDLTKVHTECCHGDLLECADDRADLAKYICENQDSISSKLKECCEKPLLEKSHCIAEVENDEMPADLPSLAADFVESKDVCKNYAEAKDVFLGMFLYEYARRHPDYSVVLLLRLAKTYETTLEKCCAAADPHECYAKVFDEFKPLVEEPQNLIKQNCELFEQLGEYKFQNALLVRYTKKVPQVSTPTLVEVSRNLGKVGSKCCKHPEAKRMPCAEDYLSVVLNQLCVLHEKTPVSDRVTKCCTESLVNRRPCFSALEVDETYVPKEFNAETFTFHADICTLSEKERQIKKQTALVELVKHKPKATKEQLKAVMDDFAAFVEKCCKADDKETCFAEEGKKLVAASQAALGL

Row | Binder | binding result
1 | B1 | no binding
2 | B2 | no binding
3 | B3 | no binding
4 | B4 | no binding
5 | B5 | no binding
6 | B6 | no binding
7 | B7 | no binding
8 | B8 | no binding
9 | B9 | no binding
10 | B10 | no binding
11 | B11 | no binding
12 | B12 | no binding
13 | B13 | no binding
14 | B14 | no binding
15 | B15 | no binding
16 | B16 | no binding
17 | B17 | no binding
18 | B18 | no binding

molecular target: T2, Recombinant Hyr1 N-terminus fragment (Candida albicans, UniProt Q5AL03 63-350); assay: ELISA, plate coated with recombinant Hyr1 N-terminus, titrated mAb
T2 construct: the last 288 residues are Hyr1 63-350; Expressed in HEK293F cells, 32 kDa; also called recombinant N-terminus of the Hyr1 protein; purified Hyr1 protein
T2 sequence: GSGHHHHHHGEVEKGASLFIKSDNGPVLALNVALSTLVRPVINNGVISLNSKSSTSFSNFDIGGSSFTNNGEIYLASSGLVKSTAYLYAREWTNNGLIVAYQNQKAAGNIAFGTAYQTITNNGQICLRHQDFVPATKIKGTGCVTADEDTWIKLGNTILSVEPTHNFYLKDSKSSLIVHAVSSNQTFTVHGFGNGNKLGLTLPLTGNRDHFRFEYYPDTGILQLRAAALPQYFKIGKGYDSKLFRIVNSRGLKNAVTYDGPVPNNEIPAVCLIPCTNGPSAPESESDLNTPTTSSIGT

Row | Binder | EC50 [mg/L]
19 | B4 | 0.0496
20 | B10 | 0.0765
21 | B12 | 0.104
22 | B17 | 0.0533
23 | B18 | 1.05
